Test: soluble on expression in E. coli; label from the status in PepcDB or PDB records

Row | Sequence | soluble on expression in E. coli
1 | MPKDKKKDEVTEVEHVDRNISSFSQISHLIDAEIITRLTLSHNKLTSVPPNIADLVSLQSLNLWNNQIEDLPPSISSLPKLRILNVGMNKLSILPRGFGSFPELEILDLTYNNLSERSLPGNFFFMQTLRALYLGDNDFEMLPGDVENLTNLQILVLRENDLLTLPKELGKLTRLRELHIQGNRLAMIPPELGNLELVGSKQVLRLEHNPFIPRIEEQFEANGAAGVWAHIRTDDYRYFFGRQEPSSTPVPPKRNKEKKVSRKGIQQA | not soluble
2 | MSKRNTQQRRHNIIADLNAQGEVSVDSLAKQFDTSEVTIRKDLAALETSGLLLRRYGGAVALPSEITEAKVDQLSQQKLHIAKKAAMLIRDHNRIIIDSGQTTSALVSELANKKGLVVMTNALSIANEIHALENEPTLLMTGGTWDATSEAFQGQVAEQVLRSYDFDQLFIGADGIDIKRGTTTFNELIGLSRVMAEVAREVIVMVESAKITKKIPNLELNWQQIHTVITDDGLSEEMRIALTEQGVKLIIAKGLEHHHHHH | soluble
3 | AYPSFEAYSNYKVDRTDLETFLDKQKEVSLYYLLQNIAYPEGQFNNGVPGTVIASPSTSNPDYYYQWTRDSAITFLTVLSELEDNNFNTTLAKAVEYYINTSYNLQRTSNPSGSFDDENHKGLGEPKFNTDGSAYTGAWGRPQNDGPALRAYAISRYLNDVNSLNEGKLVLTDSGDINFSSTEDIYKNIIKPDLEYVIGYWDSTGFDLWEENQGRHFFTSLVQQKALAYAVDIAKSFDDGDFANTLSSTASTLESYLSGSDGGFVNTDVNHIVENPDLLQQNSRQGLDSATYIGPLLTHDIGESSSTPFDVDNEYVLQSYYLLLEDNKDRYSVNSAYSAGAAIGRYPEDVYNGDGSSEGNPWFLATAYAAQVPYKLAYDAKSASNDITINKINYDFFNKYIVDLSTINSAYQSSDSVTIKSGSDEFNTVADNLVTFGDSFLQVILDHINDDGSLNEQLNRYTGYSTGAYSLTWSSGALLEAIRLRNKVKALA | soluble
4 | MSLGANIVSVEFIPVNVAATNWSENTVIVKVTDENGVYGLGEADGPPECMKAFSEIENEHKWLNNIKEAVIGRDPLEFRANYNRMYDTTKWIGMRGLGLFAISGIDMALYDLAGKQLGVPAYKLMGGAQKAQLTPYFTLYPSVAADATLSEIVEAYKPLIAKAKERGAKAVKVCIIPNDKVSDKEIVAYLRELREVIGWDMDMMVDCLYRWTDWQKARWTFRQLEDIDLYFIEACLQHDDLIGHQKLAAAINTRLCGAEMSTTRFEAQEWLEKTGISVVQSDYNRCGGVTELLRIMDICEHHNAQLMPHNWKTGITAAAARHFGIVCHISEYVEYLHPDFWNGTLTQQLTLNEPKIIDGAIEVSDKPGLGIELNIEFVEQVTGHKFEGHHHHHH | soluble
5 | GMSIPANNSPVRLALIGAGRWGKNYIRTIAGLPGAALVRLASSNPDNLALVPPGCVIESDWRSVVSAPEVEAVIIATPPATHAEITLAAIASGKAVLVEKPLTLDLAEAEAVAAAAKATGVMVWVEHTQLFNPAWEALKADLTSIGPILAVRSEAGNHGPYRPGGVPMLWDWGAHDVSMVLDLMGRDPDSTSASWAARGEKDGGEAGDVTLTLAFSTVEAHIRLCNTMDKCRRLAVFGEAGTLVMDDRATDKLTLHPPQPDGNWPVGQGHALTVTDEMPLTRAVRLFAGAVRQPEPGPSPLELGLRVVRVLGACS | soluble
6 | MTLMVPFKQVDVFTEKPFMGNPVAVINFLEIDENEVSQEELQAIANWTNLSETTFLFKPSDKKYDYKLRIFTPRSELPFAGHPTIGSCKAFLEFTKNTTATSLVQECKIGAVPITINEGLISFKAPMADYESISSEMIADYEKAIGLKFIKPPALLHTGPEWIVALVEDAETCFNANPNFAMLAHQTKQNDHVGIILAGPKKEAAIKNSYEMRAFAPVINVYEDPVCGSGSVALARYLQEVYKFEKTTDITISEGGRLKRNGLMLASIKKEADNSTSYYIAGHATTVIDGKIKVHHHHHH | soluble
7 | GDNDAIYYPVGDVDIERGGPALEVGEEDVLVARSFNEEDYVLDTIAQYPNDPTLGKLTFMIDLKNQQKDQNVADFNGVGKSKLTMSLGYKDGNYPSESQVPIYTSQDVTAKYAVKLRLKGELLVSGDEWMIDYVYAQLASLFQPYPPANFPEVFMCKGGMKLGTFDSFRRTCTFDITYDRSDLSFSQLYFNLFINLAGQKRENRVRLRIDKESYFELYEQSEEM | soluble
8 | MGSDKIHHHHHHMAKNKTAYVCNECGQDFPRWQGQCSACQEWNTITEVRLGAASPGRSTKFVGYAGASSNEVKTLDQIDLNAMPRILSHFGELDRVLGGGIVPGSAILIGGHPGAGKSTLLLQTLCHLAEQMPALYVTGEESLQQVAMRAHRLGLPTNKLRMLSETSVEQICEVALKELPKVIVVDSIQVMHMSDVASSPGSVSQVRESASYLTRFAKENGIAVIMVGHVTKDGSLAGPKVLEHCIDCSVMFEGDSDSRYRTLRSHKNRFGAINELGVFAMTERGLKEVANPSAIFLSRGEEESSGSLVMVVWEGTRPLLVELQVLVDNSAMSNPRRVAVGMDANRLAMLLAVMHRHGGLQMSDQDVFVNVVGGVKVTETSADLTLLLAMVSSFRGDILPSDLVAFGEVGLSGEIRPVPNGQERLIEAAKHGFKRAIVPKANVPKKPPAGMEVVGVSKLSEALEAI | not soluble
9 | MTSTKAYVLALAGCTNSGKSTLAKEFQRFFGAGETTIINQDEFYKTENEVEKIYHPDAEHLTDEGYYWSFDEKEAINIDQFRQRILNESKVYKNVIIDGNMITEMDEIVDLCDRIVVMTLDFKTCKRRREARTDYVPADTPGYFVNVAFPAYVRHLERARQRSRTDSRLTFIDVSESKFDDKNKSIVNFRQQILDDHIKLTDEVIDVKVVDQLVSHPSCGAISTFNGVTRDNHGGRDVSNLSYDCHDLMAYKKLRGICAEIRAEYPDVKKIAIFHRLGKVDIGESSVIISTSSPHRKTAIQATEKCIDLLKEHAPIFKYEEYSNGEVDGVWKSNIEDSKQ | not soluble
10 | MYIKNSERLKFRLMDSKDAQELWEIDQDPTVMKFLNGGNPTSIEQVNSVFIPRMNKYRNSELGWGIWQVSNKVTDEYLGWVLIRPMSFFTESPNTKDLELGWRFFQSTWGKGYATEAAIAIRDAVVANTDVTHVSALAVADNLASVGVMKKMGMHFVRAYLHEDPIGDFDAVHYQMSVRNK | not soluble
11 | AYMYRSAFSVGLETRVTVPNVPIRFTKIFYNQQNHYDGSTGKFYCNIPGLYYFSYHITVYMKDVKVSLFKKDKAVLFTYDQYQEKNVDQASGSVLLHLEVGDQVWLQVYGDGDHNGLYADNVNDSTFTGFLLYHDTN | soluble
12 | MSNRNGGGGGGDYQDVIESLRRTQLIFEEDDNNSSDSAPQANHLSRHQTSNSLVEDMVNHSNGNPPPVPPGITQQQCQIGLTPRMSASPPSAVSTISGTAVLGKTMARVQSNPPGSIPHNTTTTAQGIQSVAPHIPIGGGGATDDSSAEILSVFECPVCLEYMLPPYMQCSSGHLVCSNCRPKLQCCPTCRGPTPSVRNLGLEKIANTVRFPCKFSTSGCPLNFHHADKTEHEELCEFRPYCCPCPGASCKWQGGLSDVMEHLKKIHKSITTLQGEDIVFLATDINLPGAVDWVMMQSCFDYNFMLVLEKQEKYDPAQPTQMFYAVVQLIGSKKEADNFVYRLELSASRRRMSWEATPRSIHEGVVVAIQQSDCLAFDSNAAQLFAENGNLGINVTISRIDTPQRRHPNELENSDLEYD | not soluble
13 | MGSDKIHHHHHHMSLFHLIAPSGYCIKQHAALRGIQRLTDAGHQVNNVEVIARRCERFAGTETERLEDLNSLARLTTPNTIVLAVRGGYGASRLLADIDWQALVARQQHDPLLICGHSDFTAIQCGLLAHGNVITFSGPMLVANFGADELNAFTEHHFWLALRNETFTIEWQGEGPTCRAEGTLWGGNLAMLISLIGTPWMPKIENGILVLEDINEHPFRVERMLLQLYHAGILPRQKAIILGSFSGSTPNDYDAGYNLESVYAFLRSRLSIPLITGLDFGHEQRTVTLPLGAHAILNNTREGTQLTISGHPVLKM | not soluble
14 | SLTQSLLMYMDGPEVIGSSLGSPMEMEDALSMKGTAVVPFRATQEKNVIQIEGYMPLDCMFCSQTFTHSEDLNKHVLMQHRPTLCEPAVLRVEAEYLSPLDKSQVRTEPPKEKNCKENEFSCEVCGQTFRVAFDVEIHMRTHKDSFTYGCNMCGRRFKEPWFLKNHMRTHNGKSGARSKLQQGLESSPATINEVVQVHAAESISSPYKICMVCGFLFPNKESLIEHRKVHTKKTAFGTSSAQTDSPQGGMPSSREDFLQLFNLRPKSHPETGKKPVRCIPQLDPFTTFQAWQLATKGKVAICQEVKESGQEGSTDNDDSSSEKELGETNKGSCAGLSQEKEKCKHSHGEAPSVDADPKLPSSKEKPTHCSECGKAFRTYHQLVLHSRVHKKDRRAGAESPTMSVDGRQPGTCSPDLAAPLDENGAVDRGEGGSEDGSEDGLPEGIHLDKNDDGGKIKHLTSSRECSYCGKFFRSNYYLNIHLRTHTGEKPYKCEFCEYAAAQKTSLRYHLERHHKEKQTDVAAEVKNDGKNQDTEDALLTADSAQTKNLKRFFDGAKDVTGSPPAKQLKEMPSVFQNVLGSAVLSPAHKDTQDFHKNAADDSADKVNKNPTPAYLDLLKKRSAVETQANNLICRTKADVTPPPDGSTTHNLEVSPKEKQTETAADCRYRPSVDCHEKPLNLSVGALHNCPAISLSKSLIPSITCPFCTFKTFYPEVLMMHQRLEHKYNPDVHKNCRNKSLLRSRRTGCPPALLGKDVPPLSSFCKPKPKSAFPAQSKSLPSAKGKQSPPGPG | not soluble
15 | SLNRLFKRYSQQVQLILEATRAIGDGNLKERIDTNQVQEELNDIASAINFMVDSLDQYIHDIYTLEIKQRDAHMRALQSQINPHFLYNTLEYIRMYALSRQQEELADVVYAFSTLLRNNINQEKTTTLAEEISFCEKYVYLYQMRYPDQFAYKFEIEETIADVEIPKFIIQPLVENYFVHGIDYQRQDNAIKVHAYREGEKIIVAVVDNGKGITANRLEEIRERLNQTEIDTEQSIGLRNVHERLQRFFGESYGLTIEGKEGEGTTIRLSFVA | soluble
16 | MAHHHHHHMEYDKEKMESLVSKVKEKFGKKVEIVNLKLDVKMPLFEIFLQASIHTQIKIFYARGRTLQYRLPPVFWTRCKILKENKILQEKYGGECAPGLFPQYDEYNIMQIMTECVYNDKYNFYVYDVNLEWENLCALTPENRELRKIVHQNVHVPTRLAVIKAFEQGVEDFRDVIREEYLIMLREQRKLKENKKYKF | not soluble
17 | MLSSKTFLNLVRTSRCRMSSSFAPKPAERTAQHSASIWVEFTTLAAETKAVNLGQGFPDSPAPKFVTDLLENLSKHPELTAAHQYTRGYGHPMLVDILAKMYSHFYNVQVDPMNEVLVTVGAYLSLYYAFLGWVNKGDEVLIIEPAYDCYYPQVKFAGGVPVPVVMNLAEGATSASQFTIDFADMESKINEKTKMLVINNPHNPTGKLFSRHELEKLAEIAKKHNLIVIADEVYEFHVWDKNDMVRFASLPGMYERTISIGSAGKAFSVTGWKLGWAVGPKQLLEPLKAIHQNCVFTCSTPTQMAIAEAFRLDWPKFLSDPENSYLATGLSGELRAKRDKLAKMLEEGNFRPIIPDAGYFMLADYVHLKEGINLPTEEDPDDFVFSRWLCREKKLAVIPPSAFYSARDNKLKNSNMVRLCYFKKDETLDAAEEILKKLGKQ | not soluble
18 | MGSDKIHHHHHHILPNDESQKLIVNALINANKTNNAIFLALSGYHEPQVVKNGIIHLYINNVLSETISECTYRPNNDSPLDYQNYFYQISSRFKTGDQVRIEVETKDGKYKANAEATVYEPIEIIKADTIESNHSLSETSESLWIYQATKWKIKLQTPTTNHSQYYRVNIKQTYTYRLTNRKTLQDSTAISTQWECSGYYDTALMDGKPGTPNNSDPIINFIPTINNYYNVFNDAYFTNNQYTMTLDSWYSFLLDNKLYKIKKITGKAIIQYYAISPAEYQYLRAANAYADHDSSNLLETPVIFPNNIKGGIGIFAIENPTETSIPLKSIEDY | not soluble

— the DeepSol protein solubility set
